Nine molecules from patent publication US20090099029A1, “Methods and substrates for conducting assays” (Invitrogen Corporation, priority 2005, published 2009) can be followed below.

First the molecules themselves.
B1: GRK6 (protein)
chain: MELENIVANTVLLKAREGGGGNRKGKSKKWRQMLQFPHISQCEELRLSLERDYHSLCERQPIGRLLFREFCATRPELSRCVAFLDGVAEYEVTPDDKRKACGRQLTQNFLSHTGPDLIPEVPRQLVTNCTQRLEQGPCKDLFQELTRLTHEYLSVAPFADYLDSIYFNRFLQWKWLERQPVTKNTFRQYRVLGKGGFGEVCACQVRATGKMYACKKLEKKRIKKRKGEAMALNEKQILEKVNSRFVVSLAYAYETKDALCLVLTLMNGGDLKFHIYHMGQAGFPEARAVFYAAEICCGLEDLHRERIVYRDLKPENILLDDHGHIRISDLGLAVHVPEGQTIKGRVGTVGYMAPEVVKNERYTFSPDWWALGCLLYEMIAGQSPFQQRKKKIKREEVERLVKEVPEEYSERFSPQARSLCSQLLCKDPAERLGCRGGSAREVKEHPLFKKLNFKRLGAGMLEPPFKPDPQAIYCKDVLDIEQFSTVKGVELEPTDQDFYQKFATGSVPIPWQNEMVETECFQELNVFGLDGSVPPDLDWKGQPPAPPKKGLLQRLFSRQDCCGNCSDSEEELPTRL
modifications: left off: a dimerising Fc or GST
B2: MAP2K3(MEK3) (protein)
chain: MSKPPAPNPTPPRNLDSRTFITIGDRNFEVEADDLVTISELGRGAYGVVEKVRHAQSGTIMAVKRIRATVNSQEQKRLLMDLDINMRTVDCFYTVTFYGALFREGDVWICMELMDTSLDKFYRKVLDKNMTIPEDILGEIAVSIVRALEHLHSKLSVIHRDVKPSNVLINKEGHVKMCDFGISGYLVDSVAKTMDAGCKPYMAPERINPELNQKGYNVKSDVWSLGITMIEMAILRFPYESWGTPFQQLKQVVEEPSPQLPADRFSPEFVDFTAQCLRKNPAERMSYLELMEHPFFTLHKTKKTDIAAFVKEILGEDS
modifications: left off: a dimerising Fc or GST
B3: MAP2K6(MKK6) (protein)
chain: MSQSKGKKRNPGLKIPKEAFEQPQTSSTPPRDLDSKACISIGNQNFEVKADDLEPIMELGRGAYGVVEKMRHVPSGQIMAVKRIRATVNSQEQKRLLMDLDISMRTVDCPFTVTFYGALFREGDVWICMELMDTSLDKFYKQVIDKGQTIPEDILGKIAVSIVKALEHLHSKLSVIHRDVKPSNVLINALGQVKMCDFGISGYLVDSVAKTIDAGCKPYMAPERINPELNQKGYSVKSDIWSLGITMIELAILRFPYDSWGTPFQQLKQVVEEPSPQLPADKFSAEFVDFTSQCLKKNSKERPTYPELMQHPFFTLHESKGTDVASFVKLILGD
modifications: left off: small tags and cut ends
B4: MAP2K6, mutant (protein)
chain: MSQSKGKKRNPGLKIPKEAFEQPQTSSTPPRDLDSKACISIGNQNFEVKADDLEPIMELGRGAYGVVEKMRHVPSGQIMAVKRIRATVNSQEQKRLLMDLDISMRTVDCPFTVTFYGALFREGDVWICMELMDTSLDKFYKQVIDKGQTIPEDILGKIAVSIVKALEHLHSKLSVIHRDVKPSNVLINALGQVKMCDFGISGYLVDEVAKEIDAGCKPYMAPERINPELNQKGYSVKSDIWSLGITMIELAILRFPYDSWGTPFQQLKQVVEEPSPQLPADKFSAEFVDFTSQCLKKNSKERPTYPELMQHPFFTLHESKGTDVASFVKLILGD
modifications: left off: small tags and cut ends
B5: GRK7 (protein)
chain: MVDMGALDNLIANTAYLQARKPSDCDSKELQRRRRSLALPGLQGCAELRQKLSLNFHSLCEQQPIGRRLFRDFLATVPTFRKAATFLEDVQNWELAEEGPTKDSALQGLVATCASAPAPGNPQPFLSQAVATKCQAATTEEERVAAVTLAKAEAMAFLQEQPFKDFVTSAFYDKFLQWKLFEMQPVSDKYFTEFRVLGKGGFGEVCAVQVKNTGKMYACKKLDKKRLKKKGGEKMALLEKEILEKVSSPFIVSLAYAFESKTHLCLVMSLMNGGDLKFHIYNVGTRGLDMSRVIFYSAQIACGMLHLHELGIVYRDMKPENVLLDDLGNCRLSDLGLAVEMKGGKPITQRAGTNGYMAPEILMEKVSYSYPVDWFAMGCSIYEMVAGRTPFKDYKEKVSKEDLKQRTLQDEVKFQHDNFTEEAKDICRLFLAKKPEQRLGSREKSDDPRKHHFFKTINFPRLEAGLIEPPFVPDPSVVYAKDIAEIDDFSEVRGVEFDDKDKQFFKNFATGAVPIAWQEEIIETGLFEELNDPNRPTGCEEGNSSKSGVCLLL
modifications: left off: a dimerising Fc or GST
B6: EPHA3 (protein)
chain: RFCGYKSKHGADEKRLHFGNGHLKLPGLRTYVDPHTYEDPTQAVHEFAKELDATNISIDKVVGAGEFGEVCSGRLKLPSKKEISVAIKTLKVGYTEKQRRDFLGEASIMGQFDHPNIIRLEGVVTKSKPVMIVTEYMENGSLDSFLRKHDAQFTVIQLVGMLRGIASGMKYLSDMGYVHRDLAARNILINSNLVCKVSDFGLSRVLEDDPEAAYTTRGGKIPIRWTSPEAIAYRKFTSASDVWSYGIVLWEVMSYGERPYWEMSNQDVIKAVDEGYRLPPPMDCPAALYQLMLDCWQKDRNNRPKFEQIVSILDKLIRNPGSLKIITSAAARPSNLLLDQSNVDITTFRTTGDWLNGVWTAHCKEIFTGVEYSSCDTIAKISTDDMKKVGVTVVGPQKKIISSIKALETQSKNGPVPV
modifications: left off: small tags and cut ends
B7: IRAK4 (protein)
chain: MNKPITPSTYVRCLNVGLIRKLSDFIDPQEGWKKLAVAIKKPSGDDRYNQFHIRRFEALLQTGKSPTSELLFDWGTTNCTVGDLVDLLIQNEFFAPASLLLPDAVPKTANTLPSKEAITVQQKQMPFCDKDRTLMTPVQNLEQSYMPPDSSSPENKSLEVSDTRFHSFSFYELKNVTNNFDERPISVGGNKMGEGGFGVVYKGYVNNTTVAVKKLAAMVDITTEELKQQFDQEIKVMAKCQHENLVELLGFSSDGDDLCLVYVYMPNGSLLDRLSCLDGTPPLSWHMRCKIAQGAANGINFLHENHHIHRDIKSANILLDEAFTAKISDFGLARASEKFAQTVMTSRIVGTTAYMAPEALRGEITPKSDIYSFGVVLLEIITGLPAVDEHREPQLLLDIKEEIEDEEKTIEDYIDKKMNDADSTSVEAMYSVASQCLHEKKNKRPDIKKVQQLLQEMTAS
modifications: left off: small tags and cut ends
B8: GSK3A (protein)
chain: MSGGGPSGGGPGGSGRARTSSFAEPGGGGGGGGGGPGGSASGPGGTGGGKASVGAMGGGVGASSSGGGPGGSGGGGSGGPGAGTSFPPPGVKLGRDSGKVTTVVATLGQGPERSQEVAYTDIKVIGNGSFGVVYQARLAETRELVAIKKVLQDKRFKNRELQIMRKLDHCNIVRLRYFFYSSGEKKDELYLNLVLEYVPETVYRVARHFTKAKLTIPILYVKVYMYQLFRSLAYIHSQGVCHRDIKPQNLLVDPDTAVLKLCDFGSAKQLVRGEPNVSYICSRYYRAPELIFGATDYTSSIDVWSAGCVLAELLLGQPIFPGDSGVDQLVEIIKVLGTPTREQIREMNPNYTEFKFPQIKAHPWTKVFKSRTPPEAIALCSSLLEYTPSSRLSPLEACAHSFFDELRCLGTQLPNNRPLPPLFNFSAGELSIQPSLNAILIPPHLRSPAGTTTLTPSSQALTETPTSSDWQSTDATPTLTNSS
modifications: left off: small tags and cut ends
B9: MAP3K11(MLK3) (protein)
chain: MEPLKSLFLKSPLGSWNGSGSGGGGGGGGGRPEGSPKAAGYANPVWTALFDYEPSGQDELALRKGDRVEVLSRDAAISGDEGWWAGQVGGQVGIFPSNYVSRGGGPPPCEVASFQELRLEEVIGIGGFGKVYRGSWRGELVAVKAARQDPDEDISVTAESVRQEARLFAMLAHPNIIALKAVCLEEPNLCLVMEYAAGGPLSRALAGRRVPPHVLVNWAVQIARGMHYLHCEALVPVIHRDLKSNNILLLQPIESDDMEHKTLKITDFGLAREWHKTTQMSAAGTYAWMAPEVIKASTFSKGSDVWSFGVLLWELLTGEVPYRGIDCLAVAYGVAVNKLTLPIPSTCPEPFAQLMADCWAQDPHRRPDFASILQQLEALEAQVLREMPRDSFHSMQEGWKREIQGLFDELRAKEKELLSREEELTRAAREQRSQAEQLRRREHLLAQWELEVFERELTLLLQQVDRERPHVRRRRGTFKRSKLRARDGGERISMPLDFKHRITVQASPGLDRRRNVFEVGPGDSPTFPRFRAIQLEPAEPGQAWGRQSPRRLEDSSNGERRACWAWGPSSPKPGEAQNGRRRSRMDEATWYLDSDDSSPLGSPSTPPALNGNPPRPSLEPEEPKRPVPAERGSSSGTPKLIQRALLRGTALLASLGLGRDLQPPGGPGRERGESPTTPPTPTPAPCPTEPPPSPLICFSLKTPDSPPTPAPLLLDLGIPVGQRSAKSPRREEEPRGGTVSPPPGTSRSAPGTPGTPRSPPLGLISRPRPSPLRSRIDPWSFVSAGPRPSPLPSPQPAPRRAPWTLFPDSDPFWDSPPANPFQGGPQDCRAQTKDMGAQAPWVPEAGP
modifications: left off: a dimerising Fc or GST

For the data set, the system named is kinases of Table 6 on Myelin Basic Protein (MBP). As to the kind of experiment: Kinase assay using MBP substrate, ProQ Diamond stain (Table 6). Conditions: kinase printed on MBP-coated slide; 20 uM ATP, 30° C.; ProQ Diamond Microarray Stain; graded Strong/Weak/Negative. In kind it is biochemical. Here is the method: In this illustrative example, four-well slides were designed with a hydrophobic mask surrounding 4-wells of aldehyde- or epoxy-coated glass (smooth or ES grade; Erie Scientific (Portsmouth, N.H.)). […] Bovine, dephosphorylated, Myelin Basic Protein (MBP) was purchased from Upstate Biotechnology (#13-110). MBP was diluted to 1 mg/ml in PBS, applied to the slide surface, covered with a coverslip, and left overnight at 4° C. to coat the slide with the MBP. Slides were washed 3 times with water and spun dry before printing.
Kinases were purchased from Panvera (Invitrogen, Carlsbad, Calif.), diluted in printing buffer (50 mM Tris pH 7.5, 25% glyercol, 0.05% TritonX-100, 2 mM DTT) and deposited using a GeneMachine OmniGrid100. Slides were stored at −20° C.
Reactions were performed following removal of the slide from the freezer. Reaction buffer (20 mM HEPES pH 7.5, 4 mM MgCl2, 2 mM DTT, 20 uM ATP, 5% DMSO) was added with or without inhibitor, a coverslip applied, and the slide placed at 30° C. for the appropriate reaction time. The slide was washed with water to stop the reaction (3 times) and spun dry. ProQ Diamond Microarray Stain (Invitrogen #P33706) was applied, covered with a coverslip, and the slide was incubated in the dark at room temperature for 30 minutes. The slide was destained and washed three times with water, and spun dry.
As for B1, the “MBP Kinase Activity” value was “Negative”.

Regarding B2, the “MBP Kinase Activity” value is recorded as “Negative”.

On to B3, for which the “MBP Kinase Activity” value is “Weak”.

With B4, the “MBP Kinase Activity” value is on record as “Negative”.

In the case of B5, the “MBP Kinase Activity” value is reported as “Negative”.

Turning to B6, the “MBP Kinase Activity” value is “Strong”.

In the case of B7, the “MBP Kinase Activity” value was “Strong”.

B8: the “MBP Kinase Activity” value is “Weak”.

On to B9, for which the “MBP Kinase Activity” value is listed as “Negative”.
